Target: JNKK (UniProt P45985)
Assay: cell-based or functional assay

Chain of JNKK (P45985 whole entry): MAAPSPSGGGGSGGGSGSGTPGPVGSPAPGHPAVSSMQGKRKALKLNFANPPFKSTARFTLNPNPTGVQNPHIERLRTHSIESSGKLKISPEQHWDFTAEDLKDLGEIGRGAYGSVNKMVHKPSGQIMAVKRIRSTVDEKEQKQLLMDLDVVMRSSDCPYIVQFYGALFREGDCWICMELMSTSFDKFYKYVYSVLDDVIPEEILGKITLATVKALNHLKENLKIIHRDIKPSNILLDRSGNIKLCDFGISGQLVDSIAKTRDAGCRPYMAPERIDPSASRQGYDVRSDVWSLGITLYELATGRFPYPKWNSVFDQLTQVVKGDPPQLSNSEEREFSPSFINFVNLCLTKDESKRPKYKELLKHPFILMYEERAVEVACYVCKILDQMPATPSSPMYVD

JNKK activation in COS cells cotransfected with MEKK expression vector (immune complex kinase assay with GST-JNK2) (ng expression vector): 125
Substance: MEKK (enzyme)
